Experimental data as given in the DeepSol protein solubility set.

assay: soluble on expression in E. coli; label from the status in PepcDB or PDB records

Sequence | soluble on expression in E. coli
MKLKRYEVLADEITASIQAGTRRAGDRLPSVRQTSASRGLSATTVFKAYYLLEARGLIRARDRSGYYVVGKPKALPPELEAGAPAESRRVDVDVSDRVLHVLQLTMRRDVVPFGSAFPHPSLFPHARLARAMASSVAALDPWSSVDDLSAGNTRLRRAIALRYLADGVQVRTEDIVITNGALEALNLCLGAVTRPGDSVLIESPTFYSALQSLERLGLRAIEVPAHPREGIELDALARAIDTHRPAACWLMTNFQNPLGSLMPEDKKRALVELLAARDVPLIEDDVYSELYFGAQRPLPAKAYDESGIVMSCSSFSKSLAPGWRIGWVLGGRYADRILRGKLALSLSTSAPSQAALATYLEHGGYDRHLRQLRQTLEQQRNQVMEAIARHFPPGTRTTHPDGGYFLWVALPPQVDALAVHRAALSLGVSTAPGPIFSVQDRFRHCLRLNYGHPFDARAQDGLATLGKLIARQC | not soluble
MSLTPLPYECQKCVLQFFEANRRFKLVERCDSLKAADKAAPLHIYKLYMNPRVIRINRHRYTLGLLRHLPKDHVYYSPYINNVNLDGGAAYDMDQYGLKDPRCNEVLSPGDLKVESKEKINNMEDMTMEMLQFAMRDFIRPQGRMQVQQREDPESSSEDDEDEAEDLPAEGSDDEDDDPQEAQIRRILGDAYLPRARYSSSESEASESEDEPDIDPAVTDQLEAYTNPYSWREENEPAPYRFGIRFQRMNLDFRRDRETFHGIIEYLDYNKKMYDAMKYITEKLFGKRAHPIVIKTLELGDAGGVYRLPENFKVKVSNMRFGTEFGLLWDGLNSIFHESTLPFKSLHMPLEHDHPVIHATQRLVIGTEKMFGENFAWIPFLLKLPQKNVYMLHSPLFHHDYVQLIDNWIETPKSIGTCFTFGVKQYHATQSTLNLLGDHPMVVSKRMEGVDCTEFPHCFNIPLTYESELNVYGKKRTENLDPLEFMPHVSWCLVFEVMPIGSALPLED | not soluble
MGKKKVKFLQKEELRTLLQSLDLQSGINNDWFLLLIAKTGMRYAEALALTPSDFDWVNATVTIDKSWDYKTHRGFKKTKSTASDREIAIDWQIVGQFKPLIQDLPANDPIFIEKTERGTYKKQYNSTMNNYLEAKCKTLTITVISLHALRHTHASVLLAEGVSIHTISARLGHADVGVTQEIYAHVLDELQKKDDQKMMSVLMQIALEHHHHHH | not soluble
MNLVTDQDLLDVVNFFNRPLHALIAEVSKTTSDLELVRSTTQGIENICLLLDLVGTECIKDASAAKTSVLEHHHHHH | not soluble
MSSNYATPLDDEVFPLSFANYQFTEHVSLGEHYSLNTSEDAKYNNLNGPFVVPRDTGKFDLNTSSASDETVFSLDNPQENNYKHQAMNNVQDCRMAVAAKTTQSCDKLTDLYANAAQQNYRLWLSSF | not soluble
MAHHHHHHMMRWAVDVTGIDVAEDLEREQRKCVYKVPRAANGESWHAVDDWRANASEYNDELGKVWALTRDEVQDAIAERALTANALFCNVGRTLAGALQRQGSITIAAGCASQLRGSCGRGLQWDGLLSNTQSIVSNDFACDAVPSTREVRVFSTFLNAEGKRMTVTVNMTQPTYRGVDVVAAFLQQAVATNESLSQRYSTNPRLYKLFIADEDTGEEEMAAQLDLGAQNFSCYAVNPMPAAKLFLFPQRTALLNTTTRDVNLTVQVRPLDPQAKAVQRQCVVPADMLAESLEATICSRLPASGIIQGSLRIMHGPMELNINEYYNFGAGCGQPNCPIAERTVLSLFRFGVREVVVNGRAVEEAPTEVLRDLTEDIIIDMGVDEAVSFQQFEVICINKYGARQQRLLCVDGEHLYTMRPNASEALPKTTERTIKDIEEVRIFADKPKYMEIAYTKSSHFEEDHFECTTTYNCALLNEKIRIVRRELRKREAEEQAASVKNETAMQRFMTGIRSRWFGGALQS | not soluble
MGSDKIHHHHHHMNDPESIFQRLDRLLARIEDTLPVRPQHADPAEYIALRWRKHGDTGYLQAINHPHTITLNELLNIEEQKQTLDRNTLQFVSGLPANNVLLTGARGTGKSSLIKALLNRYADRGLRMIEVDKLGLTDLPDIIEFIGQRPERFILYCDDLSFEADEPGYKALKVVLDGSISTASDNVLIYATSNRRHLIPEFMHENLATRHVDGEIHPGEATEEKISLSERFGLWLSFYPFDQEQYLEIVRHWLSQHGISRLSGPARQEALRWALARGSRNGRVARQFARDWAGQQKLAKTEPVRVDKE | not soluble
MGSDKIHHHHHHMSEEPRYLAVDVGGTNLKYALINRSGQMIKKSRMETPHEGLTQFLEAIEKISDKLKGQLNGVAFSTPGRVDTTTDTIYCRNSTLPYLNEVCLPRKLQKLGLPISVENDGKSAALAESWLGNLNDVKNGMAIVLGTCVGGGIMLDGHLWAGSRRLAGEVSLMPADQTNLADDGLFGKTGSAVRMIEAVNTVIGASCLTDGHCAFAAINAGQAQATQIFRQYAREVAALILNVQTVLDLDRYVIGGGISFQPILIDEINRQYDWILERRPWVKSTIARPEILSSRFHNDANLYGALYRLFNKLDAKHDVPIDLDNLLVNAGR | not soluble
MALHVDYTAERAFARIIGGLRSARLDAGLSQNALAAGMPVRGRAISEWETRAVEPTLGHLIQWARELGRRLVIVGRDGELRVGPVRQRPGETFEIFERRRLAVPLRNRRLALGMAQGELGALVGVSRDSIQRWELVRVPPRPIAHVVWAQKLGCSLDILVVPDGARRVRRTGFAPAGLAGSTLERPGLRVQRLGL | not soluble
MLEWRGDKYVNGYYPVSSSAPDLLLECISNESKKYLPGELIAVECKWRSTVNFFIPKSDAEKYEKYFRTNKTRYRVKHLFYLFGFGWSDNAPESVYIIPSTALYEYDENTFEITFPNGELIKDKKIRMEDYKMKFKNLIYTVPENRKHLSYQTKSFDTKKKDEPMQR | not soluble
MGSDKIHHHHHHMTGRRCERTTSPGTGGRLRAEPADFQVQEVPAYLPGGSGEYLYLHVEKTRHTTAHVVRELCAQLGVRDRDVGVAGLKDRHAVTTQWLSLPAKVEPRMGDFSLPGVRILETSRHTNKLGMGHLHGNRFVVRVRGAAGMAEQAGETLATLAQGGVPNYFGPQRFGLGGLNAEEGLRVLRGESELRDPRVRRFLTSSVQSAIFNALVSLRLEREVFDRLLTGDMAKKHDTGGVFLVEDAGAETPRAQRGEVSATGTLFGRKVKPLTADAGALEAEALALFGLSPQVFASRKGDRRLIRVFPAEAEVRPEDDGYVLAFTLPKGSFATSVLREVMKTEVDAPGAGPDTTDEGEAGDGE | not soluble
MKPLSSAIAAALILFSAQGVAEQTTQPVVTSCANVVVVPPSQEHPPFDLNHMGTGSDKSDALGVPYYNQHAM | soluble
MGSDKIHHHHHHMKRACVIGAGFGGLALAIRLQSGGVQTTLIEARDKPGGRAYFWEKDGFTFDGGPTVITDPACLEELWALKGHRMADDVELMPVMPFYRLNWADGTNFDYSNDDASLRAEIAKLEPADVAGYDDFLRYSAGVFEEGYVKLGAVPFLDFASMIKAAPALARYQAWRSVYSMVSSFVRNEKLREAFSFHTLLVGGNPMTTSAIYALIHKLEKDGGVWWAKGGTNRLIEGMVTHFRRIGGEVRIGDPVTRVETLGTRVTGVETRSGWSGKFDAVASNADVMHSYRDLLSDNSHAKRRAKSLGKKRFSPSLFVVHFGIEGTWPGIPHHMILFGPRYKGLLDDIYTHGVLPQDFSIYLHHPTVTDPSVAPEGMSTFYALVPVANMGKLPVNWDEVGPILEKRILDEVGRRLIPDIHTRIVTKFHYAPSDFSTDLSAHLGSAFSLEPLLTQSAWFRAHNRDDAISNFYLVGAGTHPGAGIPGVVGSAKATARLMLEDLS | not soluble
MWSVTDSPLDDAIQEAKSAAQKAGFDTETFAAVQSKEGRTSFAFELEGLGSASSVSELEEAIEQIEGVDAKIVYPSAMAWISASRTLDPTLIVDAFQQHGVTATLTDSSLRRRLAWTDVEEGRYRRARARRFGSRVDEESRRFEIARREGFLHKRDETTRVVETTEVLFTARSLMTKAR | not soluble
MGSDKIHHHHHHMDPLSSSDPARLASEQRRLRLQVLGLNTVEAEATFDRIARLAASFTQSPLAMVNFINDERQMFRGMYVPSGSPDDKVSPESGGIAFDLSNLSREAPGDYGFCPHVVAQGSQLALDDVFDYPRFKGNPLVNDLGVRSYLGTPLRDNTGMILGTVCVADMKPRTWDRGLREGMQELTETLLSDFKLRDSLLAQQQELFAVFDGAPFPIMLTEGPDHLLRYANGKQGSAFGLVPQFSPGRHVLPGLEAIGVFGAMDDAFHTGQAATLARASIQTYDSHTLQDFNFLCTPVRTSPAAPISGVLTVAMNTTGQDFAGSEQRAFAANVQERFERLGAGGLPGGMPGQRAESAGYRG | not soluble
MVRMYEERTATFHSMNEGVIAIDNRLVITIFNEKAKQIFEVQGDLIGKVIWEVLKDSRLPEIVERNKAVYNEEIRVSGKVIMSSRIPIVMKKKVIGAVAIFQDRTEAAKMAEELTGVRNFVEALRVQNHEHMNKLHTIAGLIQLGKSEKALQLAFQASTEQENVTEFLHRSIQNDAAAGLLLSKIRRGRELGIAVHIDENSSLQQFPEHVDQHDIVVLLGNLIENAFGSFETVQSEDKRIDISIEQTDDILAILIEDNGCGIEPTHMPRLYDKGFTVNKTGGTGYGLYLVKQIIDKGSGTIEVDSHAGQGTSFSIVFPMKGE | not soluble
GMLKILATQFNGKLQTLTKQEDELFDVVRLLAQALVGQGKVYLDAYGEFEGLYPMLSDGPDQMKRVTKIKDHKTLHAVDRVLIFTPDTERSDLLASLARYDAWHTPYSIITLGDVTETLERSIAPLALKFDKGLLPAEDGSRHGLPSLALGAFLLTHILTQLQEMTEEWE | soluble
GNSPQEEVELKKLKHLEKSVEKIADQLEELNKELTGIQQGFLPKDLQAEALCKLDRRVKATIEQFMKILEEIDTLILPENFKDSRLKRKGLVKKVQAFLAECDTVEQNICQETE | soluble
MEENSKLGLIDVFTGDGKGKTTAAFGLAFRALGWGYRVYILQFMKTGVYGENKSAIMFDRNLKVDFVGMPYFIAWENEIPKEDLDKVKNVVICKKGHPPDDYRRAVKERFDRSLEELKSGKWDMFIYDEINVALYYYLLSMEEVMEIFKAKPDHTELVFTGRKMPKEIMERADLITEVSSPRHPYQRGILARRGVDF | not soluble
CKRNVFNPSIPNRTQFIEDPIANLSIPSKDAAIKVTPYTFEGTSGRVYAHVERFFKFNGEYYIIFFRRYIYDTQAGTYAETAPGGNYHLIKIGKSMKYQEVAVNLNQDHPGLYARYTTIAQGNAYIKGSDIYVPINMADLSKGYYQSSSADLSKWTTNNNTALDVAGLGLTKIEVMDTSRITVGKYTYMYNGGGLQFSINRLEDRMRQAAERYETKMVFNEADFNNLHMFDIGMDTDGDNQIDYRMNPTNYIENDTDYSWIGMQTPHQVWIMPFNDGEKDYLIRFVEYCSGMYNINTLKTERDSAKTKADTALTQALALVSNPNSSKAEIAEACYQSIRNNLEYEVRNYFIGKYESVFKTSTPTAYVVPNYALTHYVIEIVDIQ | not soluble
MEKILEKIEEFFGFIPEIFKVLEDEPEILEAYYDKMEKILSNDALPLVTKELIGVGAAAALGSEHCLKTHIKAAKRLDAGGDEILLAILIGASMAESTALSRSLRVFKEERMDL | not soluble
